In the Human Domainome abundance scans (Beltran et al. 2025):

B1: POU domain, class 4, transcription factor 2, residues 256 to 327; numbered along this chain, Q12837 (parent)
chain: RDLEAFAERFKQRRIKLGVTQADVGSALANLKIPGVGSLSQSTICRFESLTLSHNNMIALKPILQAWLEEAE
B2: Retinoic acid receptor beta, residues 85 to 161; numbered along this chain, P10826 (parent)
chain: YKPCFVCQDKSSGYHYGVSACEGCKGFFRRSIQKNMIYTCHRDKNCVINKVTRNRCQYCRLQKCFEVGMSKESVRND

Variants of: B1
Assay: abundance fitness (aPCA) (normalised: wild type 0, dead -1); higher = more abundant; growth selection in yeast, the domain comes from the species named
Conditions: Homo sapiens

Abundance fitness of substitutions, site by site:
A59: K -0.057, C -0.431, Q 0.062, G -0.169, M -0.003, V -0.207, E -0.193, S -0.095, L -0.091, H -0.249, T -0.038, R -0.032, I 0.027, W -0.087, Y -0.026
Q65: N -0.309, M -0.235, F -0.369, I -0.502, A -0.084, D -0.186, P -0.528, K -0.074, R -0.37, S -0.028, W -0.504, E 0.058, C -0.132, V -0.324, G -0.106, T -0.19
L68: P -0.589, N -0.232, T -0.733, Y -0.372, D -0.617, A -0.483, R -0.847, G -0.777, M -0.461, S -0.559, C -0.585, Q -0.107, V -0.384, W -0.663
A66: E -0.007, W -0.138, R -0.008, M -0.246, V -0.153, T -0.096, K 0.004, Y -0.298, H -0.153, G -0.08, C -0.378, D 0.098, P -0.524, I -0.187
E69: C -0.062, I -0.248, V -0.178, K -0.458, D -0.349, T -0.133, L -0.099, G -0.18, S -0.097, R -0.211, Y -0.367, F -0.251, A -0.119, H -0.481, Q -0.001, N -0.219
I58: H -0.237, K 0.063, Y -0.461, C -0.374, G -0.287, A -0.139, T -0.235, P -0.854, W -0.152, D -0.615, M -0.118, R 0.07, L 0.02, S -0.017, N -0.077, V -0.028, E -0.258, F -0.287
N56: F -0.149, S 0.077, R -0.134, K 0.048, G -0.024, L 0.07, T -0.023, A -0.041, W -0.057, D 0.281, P -0.52, Q 0.275, M -0.304, Y -0.248, H 0.128, V 0.083, C 0.146
N55: V -0.013, T -0.024, W -0.403
K61: F -0.38, W -0.125, M 0.037, G -0.47, E -0.32, I -0.328, P -0.802, A -0.178, L -0.148, T -0.02, Y -0.237, H -0.137, Q -0.047, S -0.42, N -0.393, R 0.049
P62: D -0.18, R -0.771, H -0.23, N -0.44, T -0.533, L -0.982, G -0.628, S -0.465, I -0.638, V -0.726, E -0.457, M -0.811, Q -0.623, A -0.668, F -0.761, Y -0.827, K -0.698
A71: H -0.223, G -0.284, V -0.296, W -0.057, K -0.125, F -0.02, E -0.247, I -0.11, Q -0.188, P -0.671, L -0.433, S -0.183, D -0.614, N -0.225, M -0.4
I63: T -0.098, Y -0.333, N -0.628, A -0.03, E -0.018, V -0.006, P -0.329, K -0.495, F 0.164, L -0.217, Q -0.489, G -0.414, S -0.224, W -0.443, H 0.07, D -0.438, C -0.231, M -0.382, R -0.314
E70: D -0.212, R -0.075, M -0.332, T -0.231, A -0.058, I -0.156, G -0.313, P -0.826, K 0.076, C -0.102, Y -0.028, S -0.11, F -0.543, L -0.454, V -0.186, W -0.45, H -0.666
L64: H -0.769, N -0.823, Q -0.75, V -0.295, M -0.371, Y -0.416, P -0.98, K -0.884, R -1.08, D -0.6, W -1.11, G -0.787, T -0.769, S -0.669, I -0.394, A -0.902
W67: Q 0.108, R -0.755
M57: Q -0.859, A -0.306, H -0.547, L -0.157, W -0.374, T -0.701, K -0.892, V -0.54, F -0.428, E -0.565, S -0.602, R -0.904, P -0.924, C -0.251, G -0.41
E72: T -0.498, D -0.425, H -0.38, A -0.617, V -0.419, Y -0.206
L60: A -0.147, D -0.614, C -0.12, R -0.607, E -0.866, Q -0.843, M -0.038, N -0.682, S -0.77, P -0.971, G -0.713, T -0.436, W -0.729, H -0.944, I 0.201, Y -0.081, F -0.29

Variants of: B2
Assay: as above
Conditions: Homo sapiens

Abundance fitness of substitutions, site by site:
Y1: I -0.01, E -0.109, W -0.221, R -0.239, H 0.055, G -0.097, N 0.255, K 0.193, M 0.067, C -0.008, V 0.158, L -0.086, T -0.109, Q -0.132
K2: P -0.169, L -0.162, F -0.266, E -0.285, S -0.068, Q 0.052, D 0.017, W -0.308, Y -0.1, I -0.144, N 0.162, M -0.074, A -0.289, V -0.104, G -0.182, H 0.091, R -0.282
C4: Q -0.889, T -1.26, F -0.687, V -0.807, D -0.715, P -0.428, W -0.954, I -0.917, L -0.778, Y -0.592, R -0.827, G -0.859, N -0.731, A -0.691, M -0.754
P3: Q 0.079, N 0.162, W -0.223, K 0.048, A 0.064, D 0.225, I -0.042, E 0.136, C -0.101, S 0.031, V -0.023, R -0.321, L 0.027, Y 0.174, H 0.006, F 0.037
F5: Y -0.043, A 0.053, E -0.38, K -0.418, S -0.053, I -0.022, H -0.435, W -0.316, P 0.076, N -0.39, T -0.048, V -0.154, Q -0.046, M -0.155, C -0.244, G -0.118, R -0.421, D -0.314, L -0.076
